How the values were obtained:
MS2 coat protein [1] = experiment: apparent KD of MS2 coat protein, switch ON state; designed switch direction (-1 OFF switch, 1 ON switch): -1; higher = weaker reporter binding; settings: FMN input: 0 or 200 uM; Eterna round: R93 (includes R88 designs)
Method in brief: (§1)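 Apparent KD per design is the median of normalised cluster binding-curve fits. Designed RNA switches transcribed on-chip from Illumina sequencing clusters were titrated with SNAP-549-labelled MS2 coat protein in twofold steps from 0.7 or 1.5 nM to 3 µM, with 0.8–1.5 h down to 10–20 min per step. Buffer: 100 mM Tris-HCl pH 7.5, 80 mM KCl, 4 mM MgCl2, without or with constant ligand.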

MS2 coat protein [2] = experiment: apparent KD of MS2 coat protein, switch OFF state (with FMN for OFF switches, without FMN for ON switches); designed switch direction (-1 OFF switch, 1 ON switch): -1; higher = weaker reporter binding; settings: FMN input: 0 or 200 uM; Eterna round: R93 (includes R88 designs)
Method in brief: as §1

| Sequence | apparent KD of MS2 coat protein (MS2 coat protein [1]) | apparent KD of MS2 coat protein (MS2 coat protein [2]) |
| --- | --- | --- |
| CUGGAGUCAGGAUAUACGAACAUGUCGCCAGAUGUCAAGGUACAUGAGGAUCACCCAUGUAGAAGGGAGGAGAA [salish99-Ex2-33] | 0.0952 µM | 0.0848 µM |
| AAAAAACAUGAGGAUCACCCAUGUAAGGAUAUGUAAAACCCAUAUAAAAAGGGAAAAAACAGAAGGUGCAAAAA [wbt round 1 mod 6] | 0.0351 µM | 0.0304 µM |
| UAUAGACAUGAGGAUCACCCAUGUGAGGAUAUCAGUGACUACAGGACAUCACGUACAAUGAGAAGGCACAGAAA [JR_Exc001_Sub015] | 0.0347 µM | 0.0452 µM |
| AAGGGACAUGAGGAUCACCCAUGUCAGGAUAUGCAAACAACAAACAACAAACAACAAAGCAGAAGGGACAAAAA [63%, Olong, 5] | 0.0291 µM | 0.0241 µM |
| GAAAAGUCAGGAUAUGCGAAGGCGUCUGAUAGACGAGGCUAGCAGAAGGGACAUGAGGAUCACCCAUGUGAAAG [Mat - Exclusion 4 - Eli mod - D87] | 0.0546 µM | 0.128 µM |
| CAGAGACAUGAGGAUCACCCAUGUUAGGAUAUGCGUGAAAGAAAAAAAAAGUUAAAAAGCAGAAGGAACAGAGG [JR_Exc001_Sub310] | 0.152 µM | 0.0336 µM |
| AAAAAACAUGAGGAUCACCCAUGUAAGGAUAUGUAAAAUAAAAGAAAAAUAAAGAAAAGCAGAAGGUACAUGAA [JL wbt mod 14] | 0.037 µM | 0.0605 µM |
| AACAGUACAGGAUAUACAUGAGGAUCACCCAUGUGAGAAUUAAGUGGAGUACCACAAAGUAGAAGGGUACUGGA [Mat - Exclusion 3 - JL mod - D4] | 0.0289 µM | 0.202 µM |
| AAACCACAUGAGGAUCACCCAUGUAAGGAUAUGAACGAAAAUAAAUAAAAAUAAAAGUUCAGAAGGUACAAAAA [66%, Wbt, 22] | 0.0263 µM | 0.0243 µM |
| AAAAAACAUGAGGAUCACCCAUGUAAGGAUAUGCUGAAAAACACGGAAAAAACGUGCAGCAGAAGGUACAAAGA [Mat - Exclusion 1 - Eli mod - D96] | 0.0183 µM | 0.0399 µM |
| AAAAAGCGAGGAUAUACAUAGCUAAGACAUGUAAGCGAAAAACAUGAGGAUCACCCAUGUAGAAGGCGCAAAAA [Exclusion2-02] | 0.0168 µM | 0.0165 µM |
| AAGAAGUGAGGAUAUACAUGAGGAUCACCCAUGUAAAAGAAAGAGGGAAAAGAGAAAAGUAGAAGGCACAAGAA [Weserkare-meryamun Ptolemy II Philadelphos] | 0.0356 µM | 0.0337 µM |
| AAAAAGAGAGGAUAUACAUGAGGAUCACCCAUGUGAAAAAAAAAAAAAGGGAAAAGAUGUAGAAGGCUCAAAAA [65%, Moding Exclusion3-cac2, 16] | 0.0304 µM | 0.0321 µM |
| AAGAACGGAGGAUAUACAAAAUAAAAGAAAAGAAAGAAAGAACAUGAGGAUCACCCAUGUAGAAGGCUGAAGAA [Merneferre Ay I] | 0.0357 µM | 0.0352 µM |
| CGCAAGUCAGGAUAUUCGACAAGUAAAUCAGUAGAUCAGAAGAAGAAGGGACAUGAGGAUCACCCAUGUAAGUA [JR_Exc004_Sub404] | 0.0291 µM | 0.0263 µM |
| AAGAAGGCAGGAUAUACAAAAUAAAAGAAAAGAAAGAAAGAACAUGAGGAUCACCCAUGUAGAAGGGCUAAGAA [Merhotepre Ini] | 0.0509 µM | 0.0393 µM |
| AAAAAACAUGAGGAUCACCCAUGUCAGGAUAUCUGUAUUCAAUCCUCGGAUUGAAUACAGAGAAGGGACAUGGG [Ex1: 601] | 0.0226 µM | 0.018 µM |
| AAAAAACAUGAGGAUCACCCAUGUGAGGAUAUCCUGAAGGGAAUAAAAUAACUCGAAAGGAGAAGGCGCAAAAA [Ex 1 May 32] | 0.0352 µM | 0.033 µM |
| AGCUAGUCAGGAUAUGCGAAUAUGUCAAAAGACGUGAAGGGACAUGAGGAUCACCCAUGUAGAAGGGACUAGCA [Diamond 3] | 0.0324 µM | 0.0365 µM |
| UAAAAACAUGAGGAUCACCCAUGUCAGGAUAUGUGCUUAAUAAAAAAAUAAAUAACAAGCAGAAGGGACAAUAA [JR_Exc001_Sub201] | 0.035 µM | 0.0344 µM |
| AGUUAGCGAGGAUAUACAUGAGGAUCACCCAUGUGAGAGAAAAAAGUGAGAAAGAAAAGUAGAAGGCGCUAACA [Moding Norbert Elias (73)] | 0.0423 µM | 0.119 µM |
| AAAAAGUGAGGAUAUACAUGAAAAAAAAAAAAAAAAAAAAAACAUGAGGAUCACCCAUGUAGAAGGCGCAAAAA [GC GU GC sandwich] | 0.0315 µM | 0.0431 µM |
| GGAAAACAUGAGGAUCACCCAUGUCAGGAUAUGUGAAAAAAAAAAAAAAGAAAAGAAAACAGAAGGGACAAAAG [amethyst 6] | 0.0808 µM | 0.0232 µM |
